Source: patent publication US20160279215A1, “NOVEL PEPTIDES AND COMBINATION OF PEPTIDES FOR USE IN IMMUNOTHERAPY AGAINST VARIOUS TUMORS” (immatics biotechnologies GmbH, priority 2015, published 2016)

Target: T1, HLA-A*02:01 (Homo sapiens, UniProt P04439, D140Y/D185E/D98H/E176V/E277Q/G131W/G231S/I119V/I121R/I166T/I218V/L300P/L318F/N151K/N90K/P208A/P217A/Q86G/Q94H/R138H/R169H/T345S)
T1 construct: made in house
Assay: MHC binding assay: UV-ligand exchange with β2m ELISA (peptide exchange yield)
Conditions: binding to HLA-A*02:01 evaluated by peptide exchange yield (UV-ligand exchange, β2m ELISA)
Description: Candidate peptides for T cell based therapies according to the present invention were further tested for their MHC binding capacity (affinity). The individual peptide-MHC complexes were produced by UV-ligand exchange, where a UV-sensitive peptide is cleaved upon UV-irradiation, and exchanged with the peptide of interest as analyzed. Only peptide candidates that can effectively bind and stabilize the peptide-receptive MHC molecules prevent dissociation of the MHC complexes. To determine the yield of the exchange reaction, an ELISA was performed based on the detection of the light chain (β2m) of stabilized MHC complexes. The assay was performed as generally described in Rodenko et al. (Rodenko et al., 2006).
96 well MAXISorp plates (NUNC) were coated over night with 2 ug/ml streptavidin in PBS at room temperature, washed 4× and blocked for 1 h at 37° C. in 2% BSA containing blocking buffer. Refolded HLA-A*02:01/MLA-001 monomers served as standards, covering the range of 15-500 ng/ml. Peptide-MHC monomers of the UV-exchange reaction were diluted 100 fold in blocking buffer. Samples were incubated for 1 h at 37° C., washed four times, incubated with 2 ug/ml HRP conjugated anti-β2m for 1 h at 37° C., washed again and detected with TMB solution that is stopped with […]. Absorption was measured at 450 nm. Candidate peptides that show a high exchange yield (preferably higher than 50%, most preferred higher than 75%) are generally preferred for a generation and production of antibodies or fragments thereof, and/or T cell receptors or fragments thereof, as they show sufficient avidity to the MHC molecules and prevent dissociation of the MHC complexes.

Peptide exchange	Substance
+++ (≧50 = +++)	244 (NVAEIVIHI; listed as Homo sapiens) [compound 244]
+++ (≧50 = +++)	87 (KLLSLLEEA; listed as Homo sapiens) [compound 87]
++ (≧20% = ++)	199 (SVADLAHVL; listed as Homo sapiens) [compound 199]
++ (≧20% = ++)	65 (SLSEKSPEV; listed as Homo sapiens) [compound 65]
++++ (≧75% = ++++)	161 (NLLDENVCL; listed as Homo sapiens) [compound 161]
+++ (≧50 = +++)	213 (ILAVDGVLSV; listed as Homo sapiens) [compound 213]
+++ (≧50 = +++)	31 (GLLETTGLLAT; listed as Homo sapiens) [compound 31]
+++ (≧50 = +++)	126 (QLREAFEQL; listed as Homo sapiens) [compound 126]
+++ (≧50 = +++)	200 (IMPTFDLTKV; listed as Homo sapiens) [compound 200]
++ (≧20% = ++)	174 (ALYSGDLHAA; listed as Homo sapiens) [compound 174]
+++ (≧50 = +++)	226 (SLAGNLQEL; listed as Homo sapiens) [compound 226]
+++ (≧50 = +++)	13 (RLHDENILL; listed as Homo sapiens) [compound 13]
++ (≧20% = ++)	85 (KLLDKPEQFL; listed as Homo sapiens) [compound 85]
+++ (≧50 = +++)	34 (TLNTLDINL; listed as Homo sapiens) [compound 34]
++ (≧20% = ++)	42 (KQMSISTGL; listed as Homo sapiens) [compound 42]
++ (≧20% = ++)	235 (SLLNQPKAV; listed as Homo sapiens) [compound 235]
+++ (≧50 = +++)	231 (LLDDIFIRL; listed as Homo sapiens) [compound 231]
++ (≧20% = ++)	155 (TLDSYLKAV; listed as Homo sapiens) [compound 155]
+++ (≧50 = +++)	162 (GLLGNLLTSL; listed as Homo sapiens) [compound 162]
+++ (≧50 = +++)	195 (VIIQNLPAL; listed as Homo sapiens) [compound 195]

Peptide exchange	Substance
++ (≧20% = ++)	282 (SLYALHVKA; listed as Homo sapiens) [compound 282]
+++ (≧50 = +++)	181 (LLWAPTAQA; listed as Homo sapiens) [compound 181]
++ (≧20% = ++)	28 (IKVTDPQLLEL; listed as Homo sapiens) [compound 28]
+++ (≧50 = +++)	36 (TVLQELINV; listed as Homo sapiens) [compound 36]
+++ (≧50 = +++)	218 (SLTGANITV; listed as Homo sapiens) [compound 218]
++ (≧20% = ++)	137 (KLIYKDLVSV; listed as Homo sapiens) [compound 137]
++ (≧20% = ++)	69 (LKVLKADVVL; listed as Homo sapiens) [compound 69]
+++ (≧50 = +++)	165 (SLLDYEVSI; listed as Homo sapiens) [compound 165]
++ (≧20% = ++)	203 (FLFVDPELV; listed as Homo sapiens) [compound 203]
+++ (≧50 = +++)	167 (LVVDEGSLVSV; listed as Homo sapiens) [compound 167]
++ (≧20% = ++)	212 (MTLSEIHAV; listed as Homo sapiens) [compound 212]
++ (≧20% = ++)	194 (KLLEEVQLL; listed as Homo sapiens) [compound 194]
+ (≧10% = +)	259 (GPGIFPPPPPQP; listed as Homo sapiens) [compound 259]
+++ (≧50 = +++)	10 (QLIEKNWLL; listed as Homo sapiens) [compound 10]
++ (≧20% = ++)	138 (GIINKLVTV; listed as Homo sapiens) [compound 138]
+++ (≧50 = +++)	169 (ALADLSVAV; listed as Homo sapiens) [compound 169]
++ (≧20% = ++)	176 (VQSGLRILL; listed as Homo sapiens) [compound 176]
++ (≧20% = ++)	170 (FIAAVVEKV; listed as Homo sapiens) [compound 170]
+++ (≧50 = +++)	262 (LLLEAVWHL; listed as Homo sapiens) [compound 262]
+++ (≧50 = +++)	26 (VLDGKVAVV; listed as Homo sapiens) [compound 26]

Peptide exchange	Substance
+++ (≧50 = +++)	94 (YLDEVAFML; listed as Homo sapiens) [compound 94]
++ (≧20% = ++)	221 (IMLNSVEEI; listed as Homo sapiens) [compound 221]
++ (≧20% = ++)	273 (SLNKQIETV; listed as Homo sapiens) [compound 273]
+++ (≧50 = +++)	239 (VIIKGLEEITV; listed as Homo sapiens) [compound 239]
+++ (≧50 = +++)	5 (GLVDIMVHL; listed as Homo sapiens) [compound 5]
++ (≧20% = ++)	64 (SLYAGSNNQV; listed as Homo sapiens) [compound 64]
+++ (≧50 = +++)	25 (LLWGHPRVALA; listed as Homo sapiens) [compound 25]
+++ (≧50 = +++)	271 (VLIEYNFSI; listed as Homo sapiens) [compound 271]
+++ (≧50 = +++)	12 (RLLDPKTIFL; listed as Homo sapiens) [compound 12]
+++ (≧50 = +++)	44 (AVFNLVHVV; listed as Homo sapiens) [compound 44]
+++ (≧50 = +++)	193 (ALFHMNILL; listed as Homo sapiens) [compound 193]
++ (≧20% = ++)	284 (KLMDPGSLPPL; listed as Homo sapiens) [compound 284]
+++ (≧50 = +++)	144 (FLISQTPLL; listed as Homo sapiens) [compound 144]
++++ (≧75% = ++++)	6 (FLNAIETAL; listed as Homo sapiens) [compound 6]
++ (≧20% = ++)	103 (YLADTVQKL; listed as Homo sapiens) [compound 103]
++ (≧20% = ++)	70 (GLTEKTVLV; listed as Homo sapiens) [compound 70]
+++ (≧50 = +++)	228 (SLLELDGINLRL; listed as Homo sapiens) [compound 228]
++ (≧20% = ++)	81 (ILAEEPIYI; listed as Homo sapiens) [compound 81]
+++ (≧50 = +++)	177 (ALINVLNAL; listed as Homo sapiens) [compound 177]
+++ (≧50 = +++)	210 (GLAGDNIYL; listed as Homo sapiens) [compound 210]
